These results are taken from patent publication US20230126400A1 (Alector, published 2023).

Test [1] concerns the target T1, human MS4A4A ECL1 peptide (amino acid residues 86-98) (human).
T1 construct: synthetic peptide
T1 peptide: CMASNTYGSNPIS
The test can be described thus: array SPR.

In test [2] the target is T2, human MS4A6A ECL1 peptide (amino acid residues 68-85) (human).
T2 peptide: SASFSPNFTQVTSTLLNS
Nature of the test: array SPR.

The target in test [3] is T3, human MS4A6A ECL2 peptide (amino acid residues 138-185) (human).
T3 peptide: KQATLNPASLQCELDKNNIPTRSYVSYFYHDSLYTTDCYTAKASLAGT
Nature of the test: array SPR.

The target in test [4] is T4, BSA-conjugated human MS4A4A ECL2 peptide (amino acid residues 159-179) (human, conjugated to BSA (site not stated)).
T4 construct: also called MS4A4A-ECL2 BSA conjugated peptide; BSA-MS4A4A-ELC2 peptide
T4 peptide: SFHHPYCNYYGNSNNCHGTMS
The test can be described thus: ELISA, hybridoma supernatant. Background: In an ELISA, binding on a coated surface is turned into a signal by an enzyme label.

For test [5], the target named is T1, human MS4A4A ECL1 peptide (amino acid …). The test can be described thus: peptide ELISA. In a few lines: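 Free or BSA-conjugated peptides were coated at 2 or 10 […] in 0.05M carbonate buffer, pH 9.6, overnight at 4 °C, then blocked 1 h with PBS+0.5% BSA+0.05% Tween20. Antibodies were bound 30 min at room temperature with shaking. TMB was developed 5-10 min, stopped, and absorbance read at 650 nm.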

Test [6] deals with T5, human MS4A4A ECL2 peptide (amino acid residues 159-179), free (human).
T5 construct: synthetic peptide; also called huMS4A4A-ELC2 free-peptide
T5 peptide: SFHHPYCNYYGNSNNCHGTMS
The test can be described thus: peptide ELISA, supernatant.

Test [7] deals with T6, human MS4A4A (human, UniProt Q96JQ5 1-239). The test can be described thus: FACS, K562 cells, supernatant. The protocol:
(§1) Positive clones identified in Example 22 above were expanded and then rescreened for specificity against U937, K562, and/or 300.19 cells stably overexpressing human MS4A4A or cyno MS4A4A and parental U937, K562, and/or 300.19 cells. These experiments were performed using supernatants from hybridoma clones which had undergone further expansion after initial selection. Briefly, stably transfected cells were labeled with LIVE/DEAD Fixable Aqua Dead Cell Stain Kit (ThermoFisher Scientific Cat#L34957) on ice for 30 minutes. […] 2×10⁵ cells were aliquoted per well in 96-well U-bottom plates and incubated with 50 μl of culture supernatant on ice for 30 minutes. […] Following this secondary incubation, the cells were again washed twice with ice-cold FACS buffer and resuspended in a final volume of 200 μl of FACS buffer. Analysis was performed on a FACS Canto system (BD Biosciences), with gates drawn to exclude dead (Aqua-positive) cells.
(§2) The APC ratio was calculated for each antibody as follows. […] For cell lines overexpressing human MS4A4A (h4A) or cyno MS4A4A (cy4A), the ration was calculated by comparing the binding measured to the binding observed on the corresponding parental cell lines.

In test [8] the target is T6, human MS4A4A. The test can be described thus: FACS, U937 cells, supernatant. The protocol:
as §1, §2
For orientation: Flow cytometry measures light scatter and fluorescence of single cells or particles in a stream.

Test [9] has as its target T6, human MS4A4A. The test can be described thus: FACS, 300.19 cells, supernatant. As for the experimental part: as §1, §2
The target of test [10] is T5, human MS4A4A ECL2 peptide (amino acid …). The test can be described thus: peptide ELISA.
Test [11] has as its target T7, cynomolgus (cyno) MS4A4A (cynomolgus).
T7 construct: also called cy4A; Cyno 4A
The test can be described thus: FACS, 300.19 cells, supernatant. As for the experimental part: as §1, §2

The target of test [12] is T4, BSA-conjugated human MS4A4A ECL2 …. The test can be described thus: ELISA, supernatant. As for the experimental part:
Briefly, 96-well polystyrene plates were coated with 1-10 μg/ml of synthetic free or BSA-conjugated peptides in coating buffer (0.05M carbonate buffer, pH9.6, Millipore Sigma C3041) overnight at 4° C. Coated plates were then blocked with ELISA diluent (PBS+0.5% BSA+0.05% Tween20) for 1-hour, washed 3×300 μL in PBST (PBS+0.05% Tween20, Thermo Cat#28352), and then the antibodies were added to the plate ([…]). After 30 mins incubation (room temperature, with shaking), the plates were washed 3×300 μL in PBST. […] After a final set of washes (3×300 μL in PBST), 50 μL of TMB substrate (BioFx TMBW-1000-01) was added and the reaction was then quenched after 5-10 mins with 50 μL of stop solution (BioFx BSTP-1000-01). The quenched reaction wells were detected for absorbance at 650 nm with a BioTek Synergy Microplate Reader using GENS 2.04 software.

Test [13] concerns the target T6, human MS4A4A. The test can be described thus: FACS, HEK293, supernatant.
For test [14], the target named is T7, cynomolgus (cyno) MS4A4A. The test can be described thus: FACS, HEK293, supernatant.
Test [15] deals with T1, human MS4A4A ECL1 peptide (amino acid …). The test can be described thus: ELISA, hybridoma supernatant. In a few lines: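 Plates coated overnight at 4° C with 1-10 μg/ml free or BSA-conjugated peptide in carbonate buffer pH 9.6, blocked with PBS/0.5% BSA/0.05% Tween20. Antibodies (hybridoma supernatants) bound 30 min at room temperature with shaking; TMB development 5-10 min, stopped, absorbance read at 650 nm.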

The target of test [16] is T7, cynomolgus (cyno) MS4A4A. Nature of the test: flow cytometry (anti-mouse IgG Fc-APC), hybridoma supernatant on 300.19 cells transfected with cyno MS4A4A. As for the experimental part:
Flow cytometry was performed as follows. Briefly, transiently-transfected cells were labeled with LIVE/DEAD Fixable Aqua Dead Cell Stain Kit (ThermoFisher Scientific Cat#L34957) on ice for 30 minutes. […] 2×10⁵ cells were aliquoted per well in 96-well U-bottom plates and incubated with 50 μl of culture supernatant on ice for 30 minutes. […] Following this secondary incubation, the cells were again washed twice with ice-cold FACS buffer and resuspended in a final volume of 200 μl of FACS buffer. Analysis was performed on a FACS Canto system (BD Biosciences), with gates drawn to exclude dead (Aqua-positive) cells.

Test [17] concerns the target T6, human MS4A4A. The test can be described thus: FACS, K562 cells, supernatant; K562 cells overexpressing h4A. The protocol:
as §1, §2

The target of test [18] is T6, human MS4A4A. Nature of the test: FACS, U937 cells, supernatant; U937 cells overexpressing h4A. The protocol: as §1, §2
The target of test [19] is T7, cynomolgus (cyno) MS4A4A. The test can be described thus: FACS, stably transfected cells.

B1: anti-MS4A4A antibody 4A-24 (antibody, V domains shown)
VH: EVKLEESGGGLVQPGGSMKLSCAASGFTFSDAWMDWVRQSPEKGLEWVAEIRDNADNHPTYYAESVKGRFTISRDDSKSSVYLQMNSLRAEDTGIYYCTSDYYGSHWGQGTTLTVSS
VL: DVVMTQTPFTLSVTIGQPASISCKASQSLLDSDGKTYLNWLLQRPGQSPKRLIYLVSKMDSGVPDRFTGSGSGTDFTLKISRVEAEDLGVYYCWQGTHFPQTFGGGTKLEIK
notes: murine hybridoma antibody
For the molecule B1, the binding result in test [1] is “no binding (tested: 2000 nM)”; in test [2], “no binding (tested: 2000 nM)”; in [3] it was “no binding (tested: 2000 nM)”; in test [4], “no binding”.

B2: anti-MS4A4A antibody 4A-220 (antibody, V domains shown)
VH: EVQLQQSGPDLVKPGASVKISCKASGYSFNGYFMNWVMQSHGESLEWIGRINPYNGDTLYNQKFKGKATLTVDKSSSTGHMELRSLASEDSAVYYCARVKGYDYDGAMDYWGQGTSVTVSS
VL: DIVMTQSPDSLAVSLGERATINCRSSQSLLQSGNQKSSLAWYQQKPGQPPKLLIFWARTRQSGVPDRFSGSGSGTDFTLTISSVQAEDVAVYYCQQYSDTPFTFGQGTKLEIK
notes: murine hybridoma antibody
On to B2, for which the binding result in test [5] and in test [6] was “no binding” throughout. Further, the “fold increase in MFI” value in the test with human MS4A4A [7], in the test with human MS4A4A [8] and in the test with human MS4A4A [9] was more than 2 fold throughout.

B3: anti-MS4A4A antibody 4A-214 (antibody, V domains shown)
VH: EVKLEESGGGLVQPGRSMKLSCVASGFTFSNYWMNWVRQSPEKGLEWVAEIRLKSNNYATHYAESVKGRFTISRDDSKSSVYLQMNNLRAEDTGIYYCSSMIIVDYWGQGTTVTVSS
VL: DIVLTQSPASLTVSLGQRATISCRASQSVSSSTYSYLHWYQQRPGQPPKLLIKYASNLESGVPARFSGSGSGTVFTLNIHPVEEEDTATYYCQHSWEIPLTFGAGTKLEMK
notes: murine hybridoma antibody
In the case of B3, the binding result is “no binding” in test [5] and “binds” in [10]. The “fold increase in MFI” value with human MS4A4A [7], in the test with human MS4A4A [8], with human MS4A4A [9] and in the test with cynomolgus (cyno) MS4A4A [11] was more than 2 fold throughout.

B4: anti-MS4A4A antibody 4A-14 (antibody, V domains shown)
VH: EVKLEESGGGLVQPGGSMKLSCAASGFTFSDAWLDWVRQSPEKGLEWVAEIRSKANDHATYYAESVKGRFTISRDDSKSRFYLQMNSLRAEDTGIYYCSVDYYGFFWGQGTLVTVSA
VL: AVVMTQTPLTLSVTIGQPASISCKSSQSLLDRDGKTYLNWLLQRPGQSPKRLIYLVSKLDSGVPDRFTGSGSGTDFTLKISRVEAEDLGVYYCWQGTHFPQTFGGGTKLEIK
notes: murine hybridoma antibody
As to B4, the binding result in [2] is listed as “no binding (tested: 2000 nM)”; in [3] it was “no binding (tested: 2000 nM)”; in test [12] it was “binds”; in test [15], “no binding”; with cynomolgus (cyno) MS4A4A [16], “no binding”. Besides, the “Human 4A:parental cell ratio” value with human MS4A4A [13] came to 4.2 ratio. Besides, in the test with cynomolgus (cyno) MS4A4A [14], the “Cyno 4A:parental cell ratio” value is 0.647 ratio.

B5: anti-MS4A4A antibody 4A-204 (antibody, V domains shown)
VH: DVKLVESGGGLAKLGGSLKLSCAASGFTFSSFYMSWVRQTPEKRLELVAAINSNGGSTYYPDSVKGRFTISRDNVKNTLYLQMSSLKSEDTAMYYCARHLYYGLYYAMDYWGQGTSVTVSS
VL: ENVLTQSPAIMSASPGEKVTMTCSASSSVSFMYWYQEKSSTSPKLWIYDTSKLASGVPGRFSGSGSGNSYSLTISSMGAEDVATYYCFQGSGFPLTFGSGTKLEIK
notes: murine hybridoma antibody
B5: the binding result in [5] and in test [6] was “no binding” in each case. The “fold increase in MFI” value with human MS4A4A [17] and with human MS4A4A [18] was more than 2 fold throughout.

B6: anti-MS4A4A antibody 4A-213 (murine) (antibody, V domains shown)
VH: QVQLKESGPGLVAPSQSLSITCTVSGFSLTSYGVHWVRQPPGKGLEWLGVIWVGGSTNYNSALMSRLSISKDNSKSQVFLKMNSLQTDDTAMYYCARAVYYYGSSYYFDYWGQGTTVTVSS
VL: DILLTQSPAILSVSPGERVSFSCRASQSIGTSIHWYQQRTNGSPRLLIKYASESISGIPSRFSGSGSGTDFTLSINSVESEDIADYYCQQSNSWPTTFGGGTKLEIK
notes: murine hybridoma antibody
On to B6, for which the binding result in test [5] is reported as “no binding”; in test [6], “no binding”; with cynomolgus (cyno) MS4A4A [19], “binds”. The “fold increase in MFI” value with human MS4A4A [17] is more than 2 fold.

B7: anti-MS4A4A antibody 4A-206 (murine) (antibody, V domains shown)
VH: EVKLVESGGGLVKPGGSLKLSCAASGFTFSSYTMSWVRQTPEKRLEWVASLSSGGSTYYPDSVKGRFTISRDNARNILYLQMSSLRSEDTAMYYCAKDYYVSSYRWYFDVWGAGTTVTVSS
VL: DIQMTQITSSLSASLGDRVTISCRASQDISNYLNWYQQKPDGTVKLLIYYTSNLHSGVPSRFSGSGSGTDYSLTISNLEQEDIATYFCQQGKSFPWTFGGGTKLEIK
notes: murine hybridoma antibody
For B7, the binding result is on record as “no binding” in test [5], “no binding” in [6] and “binds” in the test with cynomolgus (cyno) MS4A4A [19]. The “fold increase in MFI” value in the test with human MS4A4A [17] and in the test with human MS4A4A [18] was more than 2 fold each time.

B8: anti-MS4A4A antibody 4A-23 (antibody, V domains shown)
VH: EVQLQQSGPELVKPGASVKMSCQASGYTFTDYNIHWVKQSHGKSLKWIGYINPNNDDTTFNQKFKGKATLTVNKSSSTAYMELRSLTSEDSAVYYCARSPYCYFDVWGTGTTVTVSS
VL: DIQMTQSPSSLSASLGGKVTITCKASQDINKYIVWYQHKPGKGPRLLINYTSTLQPGIPSRFSGGGSGGDYSFSISNLEPEDIATYYCLQYDNLWTFGGGTKLEIK
notes: murine hybridoma antibody
Regarding B8, the binding result is listed as “no binding (tested: 2000 nM)” in [1]; “no binding (tested: 2000 nM)” in [2]; “no binding (tested: 2000 nM)” in test [3]; “binds” in test [12]; “no binding” in the test with cynomolgus (cyno) MS4A4A [16]. Besides, the “Human 4A:parental cell ratio” value in the test with human MS4A4A [13] worked out at 1.96 ratio. Besides, in the test with cynomolgus (cyno) MS4A4A [14], the “Cyno 4A:parental cell ratio” value worked out at 1.22 ratio.
